Results as given in the DeepSol protein solubility set.

Assay: soluble on expression in E. coli; label from the status in PepcDB or PDB records

Sequence	soluble on expression in E. coli
MELTLESQGYLESLYRAYLEDPLSLPEDWRRYFSALTLEDLEDGRRERQAAPLPGEALDLGFLLKVEALRQAYRELGHLAARIDPLGRERPRPKALSLEAHGLSPEDLKRPLPPLFGAPTLGALLERLEATYLGPVGFEVAHVEPEERAWLLSRIEAPWPKPAPEVRRRVLRSLLQASLFEAFLQRKYLGAKTFSVEGLESLIPLLQEAVQEAARFGVREVVLGMAHRGRLNVLAHVVEKPFEAIFREFEELFPEGYVGDVKYHLGHSTDVETPWGPVHVSLNFNPSHLEFVNPVALGRVRAKQDRFGDRERKRGLAVLVHGDAAFIGEGIVQETLNLSQLPGYRVGGTLHVVANNQLGFTTLPSEYTSSRYPTDVAKMVGAPIFHVNAEALDELLFVLALALEYRSRYGKDVVIDLVGYRRRGHNETDEPTFTQPGMYALIAKKPEPWRVYAERLEAEGLVSEEELKAWQEAYLERLESEFARVKAEATPVVYSTLGGVWQGYVGGPDHLVPEADTAFPKEGLKNLLVRLSSVPEGFQVHPKLKRFLEARREMAEEKRPVDWATAEALAFATLAVEGHRVRLTGQDALRGTFTQRHAALYDYRTGERYIPLQHLAEGQAEVEIHNSPLSEAGVLGFEYGYSLDYPEGLVLWEAQFGDFVNVAQVYIDQFLASAEVKWNRLSGLVLLLPHGLEGQGPEHSSARLERFLQLAAKDNLQVAYPTTPAQFFHLLRRQVKRKIRKPLVVMTPKSLLRHPEVVSALEELAEGRFQKVIPERVKGARKVLLTSGKVYYDLLQKRKELQAEDVAILRLELLYPFPEAELQEALGAYPKKVPVVFVQEEPVNQGAWWYLSARFCGEIYGHPFSVVARPESPSPAVGSSKVHKLEQEELLEEAFR	soluble
MDIISKSGEGNKYTINSAIAFVAYASHIDINTTEFSKVLSGLRDFINDEAIRLGGKISDGSFNKCNGDWYEWLIGIRAIEFFLESETNFIVVKMPNATSFDVMSIYKSCLSEFIYDLRSKLSLNNVNLITSNPDFSIIDIRGRREELKSMLKDISFSNISLSTISEIDNLYKNFIDYAELEHIKSFLSVKTTFRPDRRLQLAHEGSLMKALYTHLQTRTWTINPTGIRYYAAATSIGNADVIGLKTVATHSITDVKSLPQSAVDEIFKINSVLDVDSCLSHILSS	soluble
MAHHHHHHMFRAARLLRGVSPFSVFLMDQKNNPSLQGVSIAKRGKMLSKMYKELSQQQRRDLQKRAEVHPSLRKSKRARPPRKTEFAEFVRQNYKVVQGLNYRKRFSALSQLYELHKPIEVQVTKALKEAKAKKVTSAKTAVKKAATKSKTAKRAKGGKSTPKKSTGKK	soluble
MAGKLIANLIVMGSGIIGRAMLQAYRKALDNANKTGVAHETINNIRRASKTMTEQEARQILGVSEQSTWEEIAQRYDNLFERNAKSGSFYLQSKVHRAKECLENVYQKNKQDGTPP	soluble
MVKVTAACIIIGDEVLNGKVVDTNSTFFAKYCFDHGIQLKEIATIGDDETQIVDTVRRLVKNYDFIISTGGIGPTHDDITYECMAKSFNLPCELDEECKERMRHKSDPEARLDADALKAHYQMATMPKGTNVKNYYVCDDLWVPICSISHKMYILPGIPQLFARMLKAFTPTLKKIYNLDKDPREYVRYFVRTHLTESQISKELKLIQDESTKVSEAIKIGSYPHFGMGFNTVSILGEKKDDSYLKSIVNRVVNNLEGEVISSELENKFSNQES	not soluble
MDEGVKEKFIGAVLGAAVGDALGKSVEDITEEEVFEFYGDRIRDFVTPHPSSPAYGQLPEETSDETTIFRLLLESLVEKKALDVRDFLNRLMEWYDREEMHRYPDPMLLTAIDLLSRGINPSTHGLTSFSVEGILRSVALGLYHYYNPELAAEGSKVVSLLTHRSDVISDASAILGALIAHLVRGDFYLEDFREKLRLIETLKDYAKEEKHKKILDRVAELLMESADLETAINTLGNGTFAFEAFPLALYIFLSNVENPEEALFQAVNSYGEFGGDTDAIGFLVGAMLGAYYGEEAIPYHLRENVENSQKLRELAERLYEVVEKQVGFSQ	not soluble
MGYRNTGSPPPPQIGGLYGDRNPNPYGTVNLGGGSPYPGGLEEYNIRPAAPFSGLVGGSRSGYYGSTVGMRRGAVVPPMSSRKTKIPQTEYPPDYASNDLMNSFNGATNSAIPSLRELATYASRYGPAYLRERFGSHDSQLERMLYGGSGPQIPSRGGGIPIDYNMNIASNHWNRGIGSPMGIMSRDVDSYQHDDAAKANKKTTTGSPSTTSTRKPRKARKPTKKTVAAAPSSSSNTSTTAKPAKTVKTSEKSA	not soluble
MTTLFISDLHLDPARPAITELFLDFLRTQVPGSDALYILGDLFEAWIGDDTPSTAADAVAEALHAVATTGVPVFFMPGNRDFLVGAAYAQRAGFRILPDPTVIDLYGQPTLLMHGDLLCTDDTAYQAFRAQTRDPAFQAQFLSQPLAARVAFAQQARAASHARQSELKQGDQAQFETVTDVAPAEVDATFVRYGLDRIIHGHTHRPAIHTVQAGGRTCTRVVLGDWYEQGSVLRVDADGLALEQLALLEHHHHHH	soluble
MPPSPLDDRVVVALSRPVRPQDLNLCLDSSYLGSANPGSNSHPPVIATTVVSLKAANLTYMPSSSGSARSLNCGCSSASCCTVATYDKDNQAQTQAIAAGTTTTAIGTSTTCPANQMVNNNENTGSLSPSSGVGSPVSGTPKQLASIKIIYPNDLAKKMTKCSKSHLPSQGPVIIDCRPFMEYNKSHIQGAVHINCADKISRRRLQQGKITVLDLISCREGKDSFKRIFSKEIIVYDENTNEPSRVMPSQPLHIVLESLKREGKEPLVLKGGLSSFKQNHENLCDNSLQLQECREVGGGASAASSLLPQPIPTTPDIENAELTPILPFLFLGNEQDAQDLDTMQRLNIGYVINVTTHLPLYHYEKGLFNYKRLPATDSNKQNLRQYFEEAFEFIEEAHQCGKGLLIHCQAGVSRSATIVIAYLMKHTRMTMTDAYKFVKGKRPIISPNLNFMGQLLEFEEDLNNGVTPRILTPKLMGVETVV	soluble
MSTSSNKSDAIKQTRAFSILLMGVDTGSSERASKWEGNSDSMILVTVNPKTKKTTMTSLERDTLTTLSGPKNNEMNGVEAKLNAAYAAGGAQMAIMTVQDLLNITIDNYVQINMQGLIDLVNAVGGITVTNEFDFPISIAENEPEYQATVAPGTHKINGEQALVYARMRYDDPEGDYGRQKRQREVIQKVLKKILALDSISSYRKILSAVSSNMQTNIEISSRTIPSLLGYRDALRTIKTYQLKGEDATLSDGGSYQIVTSNHLLEIQNRIRTELGLHKVNQLKTNATVYENLYGSTKSQTVNNNYDSSGQAPSYSDSHSSYANYSSGVDTGQSASTDQDSTASSHRPATPSSSSDALAADESSSSGSGSLVPPANINPQTLEHHHHHH	soluble
MAHHHHHHMCVSELRRLRGHGRNVYIIYDVAKGGTPPPRHFAPTSGWGMIVVPSPNVANYDEWAKQLQAARVIVNCPDEVDVKAICTWMKQGQDPGKQAEYWRIVEERMKRVGPILRYIFDGESYIDPLGAVNDALLAMKPSDVGEYFTLGGEKTWCSEDPCHKLVKIVRARTDEGAEVFLNASISADIGFRTADRLKKEMCARDLLLLILRSHGALASQALEKFGLRAFMYGEPVSALVKGLNELRSPERDEAQDSVLKVNHQGHPTRAVGLA	soluble
MSLEGEVEKTQAKGSIILATTTSTSDSGLLDYLLPEFTKDTGIEAKVVAVGTGQALQMGKDGEADVLLVHSKAAEEEFVAAGDGLERKDVMYNDFILVGPANDPLKLKQELPNDIVGALKKISEQKFKFISRGDDSGTHKKELALWTEVGITPEGDYYVSAGRGMGDVLKMADEMQAYTIADRGTYLSMKADLGLDIIVEKDTNLFNQYGVIPVNPDKNENINAEGAKAFEEWILSEKAQSLIGEYGKEKYGAPLFTPNAAKEGHHHHHH	soluble
MKRDGHTHTEFCPHGTHDDVEEMILKAIELDFDEYSIVEHAPLSSEFMKNTAGNQEAVTTASMSMSDLPYYFKKMNQMKKKYASDLLIHIGFEVDYLIGYEDFTRDFLNEYGPQTDDGVLSLHFLEGQGGFRSIDFTAEDYNEGIVQFYGGFEQAQLVYLAGVKQSIEADLGAFKPRRIGHISLCQKFQQFFGADGRDFTAEVIAEFEAILALVKKRGYELDFNTAGLFKPLCKETYPPKEIVTLARALEIPFVYGSDSHGVADIGRGYNTYCQK	not soluble
MSLSSHKPTVVLADSNDDFRSYLTSCLTEEFTIKSFRDGIEAMAYIKNEYPDLVICDTELQNMDGVELSSRLKTSCETSIIPIILYSSHIDINQHNRRKTSLADTFLQQPFSVTDLKLEMSILIKNTRFLRKSFLQRLFGEEFLETKASEILQDGKHPLISKVTKIILENLNNEKLTIDSIAKELGISRTSLYNKWTQLTGEALNKFILKIRMEKAHEMLKSGKYRVNEVPEKIGMKDMDNFREKYKKYFGKTPVDTIKNEGHHHHHH	soluble
MPRGYKNPRVVPDNVERVISAYTPVPGTLAWGVVWEDPFAEFVRECARDLGLPATASDDVIRGNLRLIASFVAWVIHEYDCPLRRDEIFDYILAEAYAMSVIYVRDGHGKGTSNKVRGIRRSMLTKIGWKMNKHFGEPHKHTLPQEGALEPYKQWQLNKVDAWAGSQPNERRRRNARVAIALALGAGLRTSEIAGLTADDCEVTDSGMVLIHAPGYRGGEPRITVVDHRFEDTITDRLAELADLRAAGEPGQYLYCPHLLGRTTDMVNDYMKKKITSSGADCYLQPDLRRLRNTWITGHIKAGVEEGAICQAAGLKSLNQFRDLVDEAAKARAEQSYARLRGGEHRPVLRLVQG	not soluble
MYLKRPIWSDGASATPENPSESETGEESDAASMVVEELVTSLNTQRLYRELTLSLRTGLRDACAEFSFLRIRGLRSLLKTLRTVADSDSIIRLFSHTQTISDLQLVPVLFQHSLKEAEDDKVTSLDHIFSVEPMKITSPSTDAEVAVALRVLEGCCLLHPQSTVLAHKHGAVRVMMNVLSTRGVLEQGACLDALISVLLDSSANQVDFGACNGIEEVAMLMRDKQADENLSIYTIKIAVNEDSFPFCLFWLRCGEFLLLLVGHVNGKDRSPIASVNEDIRRLLGEKSASLIWAASQFGSTGDPEQRITALHIQAGRVLESLDLY	soluble
MGSLVREWVGFQQFPAATQEKLIEFFGKLKQKDMNSMTVLVLGKGGVGKSSTVNSLIGEQVVRVSPFQAEGLRPVMVSRTMGGFTINIIDTPGLVEAGYVNHQALELIKGFLVNRTIDVLLYVDRLDVYAVDELDKQVVIAITQTFGKEIWCKTLLVLTHAQFSPPDELSYETFSSKRSDSLLKTIRAGSKMRKQEFEDSAIAVVYAENSGRCSKNDKDEKALPNGEAWIPNLVKAITDVATNQRKAIHVDAAALEHHHHHH	soluble
MAHHHHHHMQRSMMRELCYVGSVALSPMRPKKNAFKLRERGETTRLFCANSEMSNFYGINESGFSNTRPPPYLLRFDKCNDVIAYTNEIDNESLKQIKNLAKLHIIKGHITILPDVHLGKGIIIGSVFLTKHFIIPNGVGVDIGCGVLCVKINKLKKKNLHEGVINNIYKKIKRNIPLSFDYHEKEVFDAKNVLDELVAKYASSNMAHIMNPKHLKQMGTLGGGNHFIEIAYDASGDVKAEPINGNLSGEAHQNDNTQKYACQQNHYPESDIYILIHSGSRNIGKSTAEFYDDLASHESKVKRNDLAYLDLRKKHGQNYLRDMQLCQEYAKYNRIYMMKIIEQIIKEELNCTLDWQNAINIHHNFCNHELVNYFHNGEVKKEYMYVTRKGATSSMKNQLGIIPGNMKVGSYIVRGKGNKLSYNSCSHGCGRVLSRTHAKKIINQADFVNIMKGVRCDTSAKIRDEATQAYKNLNKVLRNQDSLIHVVRRLLPLINVKGG	not soluble
MVNQQEEINLSVALVTRNRPDSLERCLKSLRDQKVQPFEVVVSDDSDDLYKSSTKEIAQKWGCRYIDGPKRGLYANRNYVALACYGTHIRTMDDDHEFPEQHIEVCLNAIQSDPSSIWIIGEYSPTSSIENAPHPCPGQLHPRGFSFYPKDTQNCWAIADGASIYPKKIFASGLRFVEYYKFGASYLEWGSRLYYLSYRIRHLDSTYIIHHFNPKARSFSDQEMDQSSRFFAMLCHSFLYQSTFKNKCLFSYEILKQFILDPKLTIKCIINSWSNFELFSRSFCALEHHHHHH	not soluble
